Source: article PMC5062967 (Nucleic Acids Research, 2016)

Biological target: T1, human 5MP2 (ITC sample) (human, UniProt Q7L1Q6 1-419)
T1 sequence: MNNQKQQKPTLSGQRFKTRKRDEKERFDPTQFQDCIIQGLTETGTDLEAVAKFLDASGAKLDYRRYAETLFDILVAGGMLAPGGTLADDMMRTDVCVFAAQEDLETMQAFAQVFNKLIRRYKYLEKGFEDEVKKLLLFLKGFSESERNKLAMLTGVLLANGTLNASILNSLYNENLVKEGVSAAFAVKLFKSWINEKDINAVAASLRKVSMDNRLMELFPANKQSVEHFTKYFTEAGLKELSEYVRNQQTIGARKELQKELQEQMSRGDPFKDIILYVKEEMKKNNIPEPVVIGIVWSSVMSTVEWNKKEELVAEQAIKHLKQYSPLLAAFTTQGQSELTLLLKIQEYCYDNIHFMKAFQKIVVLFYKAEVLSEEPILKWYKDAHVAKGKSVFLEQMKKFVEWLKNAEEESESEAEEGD
Test: ITC

Kd: 1500 nM
B1: Human eIF2β_(53-136) carrying two K-boxes (domain or fragment)
chain: DLEADEEDTRKKDASDDLDDLNFFNQKKKKKKTKKIFDIDEAEEGVKDLKIESDVQEPTEPEDDLDIMLGNKKKKKKNVKFPDE
